Test results published in IntAct's records for PubMed 29039417.

B1: BBSome complex member BBS4 (Homo sapiens), Q96RK4 (parent)
chain: MAEERVATRTQFPVSTESQKPRQKKAPEFPILEKQNWLIHLHYIRKDYEACKAVIKEQLQETQGLCEYAIYVQALIFRLEGNIQESLELFQTCAVLSPQSADNLKQVARSLFLLGKHKAAIEVYNEAAKLNQKDWEISHNLGVCYIYLKQFNKAQDQLHNALNLNRHDLTYIMLGKIHLLEGDLDKAIEVYKKAVEFSPENTELLTTLGLLYLQLGIYQKAFEHLGNALTYDPTNYKAILAAGSMMQTHGDFDVALTKYRVVACAVPESPPLWNNIGMCFFGKKKYVAAISCLKRANYLAPFDWKILYNLGLVHLTMQQYASAFHFLSAAINFQPKMGELYMLLAVALTNLEDIENAKRAYAEAVHLDKCNPLVNLNYAVLLYNQGEKKNALAQYQEMEKKVSLLKDNSSLEFDSEMVEMAQKLGAALQVGEALVWTKPVKDPKSKHQTTSTSKPASFQQPLGSNQALGQAMSSAAAYRTLPSGAGGTSQFTKPPSLPLEPEPAVESSPTETSEQIREK
partner: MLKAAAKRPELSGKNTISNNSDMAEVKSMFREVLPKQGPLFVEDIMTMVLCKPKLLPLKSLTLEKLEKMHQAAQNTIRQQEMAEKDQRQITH

Variants of: B1
Details: with bbip1_human BBIP1, A8MTZ0

Effect of a mutation on the interaction, with no effect:
MAEERVATRTQFPVSTESQKPRQKKAPEFPILEKQNWLIHLHYIRKDYEACKAVIKEQLQETQGLCEYAIYVQALIFRLEGNIQESLELFQTCAVLSPQSADNLKQVARSLFLLGKHKAAIEVYNEAAKLNQKDWEISHNLGVCYIYLKQFNKAQDQLHNALNLNRHDLTYIMLGKIHLLEGDLDKAIEVYKKAVEFSPENTELLTTLGLLYLQLGIYQKAFEHLGNALTYDPTNYKAILAAGSMMQTHGDFDVALTKYRVVACAVPESPPLWNNIGMCFFGKKKYVEAISCLKRANYLAPFDWKILYNLGLVHLTMQQYASAFHFLSAAINFQPKMGELYMLLAVALTNLEDIENAKRAYAEAVHLDKCNPLVNLNYAVLLYNQGEKKNALAQYQEMEKKVSLLKDNSSLEFDSEMVEMAQKLGAALQVGEALVWTKPVKDPKSKHQTTSTSKPASFQQPLGSNQALGQAMSSAAAYRTLPSGAGGTSQFTKPPSLPLEPEPAVESSPTETSEQIREK [A288E]
MAEERVATRTQFPVSTESQKPRQKKAPEFPILEKQNWLIHLHYIRKDYEACKAVIKEQLQETQGLCEYAIYVQALIFRLEGNIQESLELFQTCAVLSPQSADNLKQVARSLFLLGKHKAAIEVYNEAAKLNQKDWEISHNLGVCYIYLKQFNKAQDQLHNALNLNRHDLTYIMLGKIHLLEGDLDKAIEVYKKAVEFSPENTELLTTLGLLYLQLGIYQKAFEHLGNALTYDPTNYKAILAAGSMMQTHGDFDVALTKYRVVACAVPESPPLWNNIGMCFFGKKKYVKAISCLKRANYLAPFDWKILYNLGLVHLTMQQYASAFHFLSAAINFQPKMGELYMLLAVALTNLEDIENAKRAYAEAVHLDKCNPLVNLNYAVLLYNQGEKKNALAQYQEMEKKVSLLKDNSSLEFDSEMVEMAQKLGAALQVGEALVWTKPVKDPKSKHQTTSTSKPASFQQPLGSNQALGQAMSSAAAYRTLPSGAGGTSQFTKPPSLPLEPEPAVESSPTETSEQIREK [A288K]
MAEERVATRTQFPVSTESQKPRQKKAPEFPILEKQNWLIHLHYIRKDYEACKAVIKEQLQETQGLCEYAIYVQALIFRLEGNIQESLELFQTCAVLSPQSADNLKQVARSLFLLGKHKAAIEVYNEAAKLNQKDWEISHNLGVCYIYLKQFNKAQDQLHNALNLNRHDLTYIMLGKIHLLEGDLDKAIEVYKKAVEFSPENTELLTTLGLLYLQLGIYQKAFEHLGNALTYDPTNYKAILAAGSMMQTHGDFDVALTKYRVVACAVPESPPLWNNIGMCFFGKKKEVAAISCLKRANYLAPFDWKILYNLGLVHLTMQQYASAFHFLSAAINFQPKMGELYMLLAVALTNLEDIENAKRAYAEAVHLDKCNPLVNLNYAVLLYNQGEKKNALAQYQEMEKKVSLLKDNSSLEFDSEMVEMAQKLGAALQVGEALVWTKPVKDPKSKHQTTSTSKPASFQQPLGSNQALGQAMSSAAAYRTLPSGAGGTSQFTKPPSLPLEPEPAVESSPTETSEQIREK [Y286E]
MAEERVATRTQFPVSTESQKPRQKKAPEFPILEKQNWLIHLHYIRKDYEACKAVIKEQLQETQGLCEYAIYVQALIFRLEGNIQESLELFQTCAVLSPQSADNLKQVARSLFLLGKHKAAIEVYNEAAKLNQKDWEISHNLGVCYIYLKQFNKAQDQLHNALNLNRHDLTYIMLGKIHLLEGDLDKAIEVYKKAVEFSPENTELLTTLGLLYLQLGIYQKAFEHLGNALTYDPTNYKAILAAGSMMQTHGDFDVALTKYRVVACAVPESPPLWNNIGMCFFGKKKAVAAISCLKRANYLAPFDWKILYNLGLVHLTMQQYASAFHFLSAAINFQPKMGELYMLLAVALTNLEDIENAKRAYAEAVHLDKCNPLVNLNYAVLLYNQGEKKNALAQYQEMEKKVSLLKDNSSLEFDSEMVEMAQKLGAALQVGEALVWTKPVKDPKSKHQTTSTSKPASFQQPLGSNQALGQAMSSAAAYRTLPSGAGGTSQFTKPPSLPLEPEPAVESSPTETSEQIREK [Y286A]
MAEERVATRTQFPVSTESQKPRQKKAPEFPILEKQNWLIHLHYIRKDYEACKAVIKEQLQETQGLCEYAIYVQALIFRLEGNIQESLELFQTCAVLSPQSADNLKQVARSLFLLGKHKAAIEVYNEAAKLNQKDWEISHNLGVCYIYLKQFNKAQDQLHNALNLNRHDLTYIMLGKIHLLEGDLDKAIEVYKKAVEFSPENTELLTTLGLLYLQLGIYQKAFEHLGNALTYDPTNYKAILAAGSMMQTHGDFDVALTKYRVVACAVPESPPLWNNIGMCFFGKKKKVAAISCLKRANYLAPFDWKILYNLGLVHLTMQQYASAFHFLSAAINFQPKMGELYMLLAVALTNLEDIENAKRAYAEAVHLDKCNPLVNLNYAVLLYNQGEKKNALAQYQEMEKKVSLLKDNSSLEFDSEMVEMAQKLGAALQVGEALVWTKPVKDPKSKHQTTSTSKPASFQQPLGSNQALGQAMSSAAAYRTLPSGAGGTSQFTKPPSLPLEPEPAVESSPTETSEQIREK [Y286K]
MAEERVATRTQFPVSTESQKPRQKKAPEFPILEKQNWLIHLHYIRKDYEACKAVIKEQLQETQGLCEYAIYVQALIFRLEGNIQESLELFQTCAVLSPQSADNLKQVARSLFLLGKHKAAIEVYNEAAKLNQKDWEISHNLGVCYIYLKQFNKAQDQLHNALNLNRHDLTYIMLGKIHLLEGDLDKAIEVYKKAVEFSPENTELLTTLGLLYLQLGIYQKAFEHLGNALTYDPTNYKAILAAGSMMQTHGDFDVALTKYRVVACAVPESPPLWNNIGMCFFGKKKYKAAISCLKRANYLAPFDWKILYNLGLVHLTMQQYASAFHFLSAAINFQPKMGELYMLLAVALTNLEDIENAKRAYAEAVHLDKCNPLVNLNYAVLLYNQGEKKNALAQYQEMEKKVSLLKDNSSLEFDSEMVEMAQKLGAALQVGEALVWTKPVKDPKSKHQTTSTSKPASFQQPLGSNQALGQAMSSAAAYRTLPSGAGGTSQFTKPPSLPLEPEPAVESSPTETSEQIREK [V287K]
MAEERVATRTQFPVSTESQKPRQKKAPEFPILEKQNWLIHLHYIRKDYEACKAVIKEQLQETQGLCEYAIYVQALIFRLEGNIQESLELFQTCAVLSPQSADNLKQVARSLFLLGKHKAAIEVYNEAAKLNQKDWEISHNLGVCYIYLKQFNKAQDQLHNALNLNRHDLTYIMLGKIHLLEGDLDKAIEVYKKAVEFSPENTELLTTLGLLYLQLGIYQKAFEHLGNALTYDPTNYKAILAAGSMMQTHGDFDVALTKYRVVACAVPESPPLWNNIGMCFFGKKKYEAAISCLKRANYLAPFDWKILYNLGLVHLTMQQYASAFHFLSAAINFQPKMGELYMLLAVALTNLEDIENAKRAYAEAVHLDKCNPLVNLNYAVLLYNQGEKKNALAQYQEMEKKVSLLKDNSSLEFDSEMVEMAQKLGAALQVGEALVWTKPVKDPKSKHQTTSTSKPASFQQPLGSNQALGQAMSSAAAYRTLPSGAGGTSQFTKPPSLPLEPEPAVESSPTETSEQIREK [V287E]
MAEERVATRTQFPVSTESQKPRQKKAPEFPILEKQNWLIHLHYIRKDYEACKAVIKEQLQETQGLCEYAIYVQALIFRLEGNIQESLELFQTCAVLSPQSADNLKQVARSLFLLGKHKAAIEVYNEAAKLNQKDWEISHNLGVCYIYLKQFNKAQDQLHNALNLNRHDLTYIMLGKIHLLEGDLDKAIEVYKKAVEFSPENTELLTTLGLLYLQLGIYQKAFEHLGNALTYDPTNYKAILAAGSMMQTHGDFDVALTKYRVVACAVPESPPLWNNIGMCFFGKKKYAAAISCLKRANYLAPFDWKILYNLGLVHLTMQQYASAFHFLSAAINFQPKMGELYMLLAVALTNLEDIENAKRAYAEAVHLDKCNPLVNLNYAVLLYNQGEKKNALAQYQEMEKKVSLLKDNSSLEFDSEMVEMAQKLGAALQVGEALVWTKPVKDPKSKHQTTSTSKPASFQQPLGSNQALGQAMSSAAAYRTLPSGAGGTSQFTKPPSLPLEPEPAVESSPTETSEQIREK [V287A]
MAEERVATRTQFPVSTESQKPRQKKAPEFPILEKQNWLIHLHYIRKDYEACKAVIKEQLQETQGLCEYAIYVQALIFRLEGNIQESLELFQTCAVLSPQSADNLKQVARSLFLLGKHKAAIEVYNEAAKLNQKDWEISHNLGVCYIYLKQFNKAQDQLHNALNLNRHDLTYIMLGKIHLLEGDLDKAIEVYKKAVEFSPENTELLTTLGLLYLQLGIYQKAFEHLGNALTYDPTNYKAILAAGSMMQTHGDFDVALTKYRVVACAVPESPPLWNNIGMCFFGKEKYVAAISCLKRANYLAPFDWKILYNLGLVHLTMQQYASAFHFLSAAINFQPKMGELYMLLAVALTNLEDIENAKRAYAEAVHLDKCNPLVNLNYAVLLYNQGEKKNALAQYQEMEKKVSLLKDNSSLEFDSEMVEMAQKLGAALQVGEALVWTKPVKDPKSKHQTTSTSKPASFQQPLGSNQALGQAMSSAAAYRTLPSGAGGTSQFTKPPSLPLEPEPAVESSPTETSEQIREK [K284E]
MAEERVATRTQFPVSTESQKPRQKKAPEFPILEKQNWLIHLHYIRKDYEACKAVIKEQLQETQGLCEYAIYVQALIFRLEGNIQESLELFQTCAVLSPQSADNLKQVARSLFLLGKHKAAIEVYNEAAKLNQKDWEISHNLGVCYIYLKQFNKAQDQLHNALNLNRHDLTYIMLGKIHLLEGDLDKAIEVYKKAVEFSPENTELLTTLGLLYLQLGIYQKAFEHLGNALTYDPTNYKAILAAGSMMQTHGDFDVALTKYRVVACAVPESPPLWNNIGMCFFGKAKYVAAISCLKRANYLAPFDWKILYNLGLVHLTMQQYASAFHFLSAAINFQPKMGELYMLLAVALTNLEDIENAKRAYAEAVHLDKCNPLVNLNYAVLLYNQGEKKNALAQYQEMEKKVSLLKDNSSLEFDSEMVEMAQKLGAALQVGEALVWTKPVKDPKSKHQTTSTSKPASFQQPLGSNQALGQAMSSAAAYRTLPSGAGGTSQFTKPPSLPLEPEPAVESSPTETSEQIREK [K284A]
MAEERVATRTQFPVSTESQKPRQKKAPEFPILEKQNWLIHLHYIRKDYEACKAVIKEQLQETQGLCEYAIYVQALIFRLEGNIQESLELFQTCAVLSPQSADNLKQVARSLFLLGKHKAAIEVYNEAAKLNQKDWEISHNLGVCYIYLKQFNKAQDQLHNALNLNRHDLTYIMLGKIHLLEGDLDKAIEVYKKAVEFSPENTELLTTLGLLYLQLGIYQKAFEHLGNALTYDPTNYKAILAAGSMMQTHGDFDVALTKYRVVACAVPESPPLWNNIGMCFFGKKAYVAAISCLKRANYLAPFDWKILYNLGLVHLTMQQYASAFHFLSAAINFQPKMGELYMLLAVALTNLEDIENAKRAYAEAVHLDKCNPLVNLNYAVLLYNQGEKKNALAQYQEMEKKVSLLKDNSSLEFDSEMVEMAQKLGAALQVGEALVWTKPVKDPKSKHQTTSTSKPASFQQPLGSNQALGQAMSSAAAYRTLPSGAGGTSQFTKPPSLPLEPEPAVESSPTETSEQIREK [K285A]
MAEERVATRTQFPVSTESQKPRQKKAPEFPILEKQNWLIHLHYIRKDYEACKAVIKEQLQETQGLCEYAIYVQALIFRLEGNIQESLELFQTCAVLSPQSADNLKQVARSLFLLGKHKAAIEVYNEAAKLNQKDWEISHNLGVCYIYLKQFNKAQDQLHNALNLNRHDLTYIMLGKIHLLEGDLDKAIEVYKKAVEFSPENTELLTTLGLLYLQLGIYQKAFEHLGNALTYDPTNYKAILAAGSMMQTHGDFDVALTKYRVVACAVPESPPLWNNIGMCFFGKKEYVAAISCLKRANYLAPFDWKILYNLGLVHLTMQQYASAFHFLSAAINFQPKMGELYMLLAVALTNLEDIENAKRAYAEAVHLDKCNPLVNLNYAVLLYNQGEKKNALAQYQEMEKKVSLLKDNSSLEFDSEMVEMAQKLGAALQVGEALVWTKPVKDPKSKHQTTSTSKPASFQQPLGSNQALGQAMSSAAAYRTLPSGAGGTSQFTKPPSLPLEPEPAVESSPTETSEQIREK [K285E]
